Assay results as given in US20190203279A1 (NAVINCI DIAGNOSTICS, published 2019).

Molecular target: T1, β-catenin (UniProt P35222 2-781)
T1 construct: Endogenous protein in A549 cells; also called beta-catenin
T1 sequence (looked up): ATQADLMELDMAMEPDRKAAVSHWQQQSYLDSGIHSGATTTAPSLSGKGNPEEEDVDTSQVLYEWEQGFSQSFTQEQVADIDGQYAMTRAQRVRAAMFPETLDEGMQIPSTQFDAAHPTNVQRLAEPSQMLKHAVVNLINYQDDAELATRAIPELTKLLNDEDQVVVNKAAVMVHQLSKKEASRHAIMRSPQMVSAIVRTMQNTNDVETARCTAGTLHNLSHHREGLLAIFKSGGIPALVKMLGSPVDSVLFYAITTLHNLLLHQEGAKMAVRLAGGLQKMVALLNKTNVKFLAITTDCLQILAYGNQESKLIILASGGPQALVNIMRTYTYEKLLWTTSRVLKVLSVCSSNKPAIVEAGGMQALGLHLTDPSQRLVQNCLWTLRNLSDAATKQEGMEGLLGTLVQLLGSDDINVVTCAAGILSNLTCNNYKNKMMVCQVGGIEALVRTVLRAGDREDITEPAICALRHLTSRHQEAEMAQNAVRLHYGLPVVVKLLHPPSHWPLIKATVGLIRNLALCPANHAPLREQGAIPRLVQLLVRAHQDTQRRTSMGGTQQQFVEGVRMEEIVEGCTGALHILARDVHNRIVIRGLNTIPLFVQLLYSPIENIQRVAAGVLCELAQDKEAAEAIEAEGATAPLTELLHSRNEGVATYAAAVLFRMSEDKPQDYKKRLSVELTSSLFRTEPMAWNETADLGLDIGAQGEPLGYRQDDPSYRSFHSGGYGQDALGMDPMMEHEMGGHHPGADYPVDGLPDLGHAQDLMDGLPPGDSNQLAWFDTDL
Experiment: in situ proximity-based RCA assay on fixed A549 cells with anti-E-cadherin and anti-β-catenin primary antibodies and oligonucleotide-conjugated secondary antibodies
Procedure: A proximity-based detection assay was performed to detect a protein-protein complex in situ. Frozen A549 cells fixed on a microscopy slide were thawed and incubated with PBS+0.2% Triton X-100 for 5 minutes to permeabilise the cell membranes. Slides were incubated with 30 μl Olink blocking buffer for 60 minutes at 37° C. in a humidity chamber. Primary antibodies were diluted in Olink Antibody diluent (mouse IgG anti E-cadherin 1:100, rabbit IgG anti β-catenin 1:200). Blocking buffer was removed and 15 μl of each antibody solution was added and incubated overnight at 4° C. Slides were washed, and incubated with 30 μl 20 nM secondary antibodies conjugated to oligonucleotides (nucleic acid probe and activator molecule) for 60 minutes at 37° C. in a humidity chamber. Following incubation, slides were washed and incubated with 30 μl RCA mix (Phi29 buffer, BSA, PolyA, dNTPs, UNG, Hoechst, Texas Red labelled detection oligonucleotide and Phi29 polymerase) for 100 minutes at 37° C. in a humidity chamber. Slides were washed at room temperature and allowed to try, before being contacted with SlowFade mounting media and a coverslip applied and incubated for 15 minutes in the dark. All samples were analysed at the same magnification and exposure time (FIG. 18). […]

binding result: binds
B1: E-cadherin (other, UniProt P12830 155-882, looked up)
chain: DWVIPPISCPENEKGPFPKNLVQIKSNKDKEGKVFYSITGQGADTPPVGVFIIERETGWLKVTEPLDRERIATYTLFSHAVSSNGNAVEDPMEILITVTDQNDNKPEFTQEVFKGSVMEGALPGTSVMEVTATDADDDVNTYNAAIAYTILSQDPELPDKNMFTINRNTGVISVVTTGLDRESFPTYTLVVQAADLQGEGLSTTATAVITVTDTNDNPPIFNPTTYKGQVPENEANVVITTLKVTDADAPNTPAWEAVYTILNDDGGQFVVTTNPVNNDGILKTAKGLDFEAKQQYILHVAVTNVVPFEVSLTTSTATVTVDVLDVNEAPIFVPPEKRVEVSEDFGVGQEITSYTAQEPDTFMEQKITYRIWRDTANWLEINPDTGAISTRAELDREDFEHVKNSTYTALIIATDNGSPVATGTGTLLLILSDVNDNAPIPEPRTIFFCERNPKPQVINIIDADLPPNTSPFTAELTHGASANWTIQYNDPTQESIILKPKMALEVGDYKINLKLMDNQNKDQVTTLEVSVCDCEGAAGVCRKAQPVEAGLQIPAILGILGGILALLILILLLLLFLRRRAVVKEPLLPPEDDTRDNVYYYDEEGGGEEDQDFDLSQLHRGLDARPEVTRNDVAPTLMSVPRYLPRPANPDEIGNFIDENLKAADTDPTAPPYDSLLVFDYEGSGSEAASLSSLNSSESDKDQDYDYLNEWGNRFKKLADMYGGGEDD
notes: whole, on cells; Endogenous protein in A549 cells
